From patent US20190382477A1 (COMPUGEN, published 2019)

T1: PVRIG on human CMV pp65-specific CD8+ T cells (human, UniProt Q6DKI7 41-326)
T1 sequence (looked up): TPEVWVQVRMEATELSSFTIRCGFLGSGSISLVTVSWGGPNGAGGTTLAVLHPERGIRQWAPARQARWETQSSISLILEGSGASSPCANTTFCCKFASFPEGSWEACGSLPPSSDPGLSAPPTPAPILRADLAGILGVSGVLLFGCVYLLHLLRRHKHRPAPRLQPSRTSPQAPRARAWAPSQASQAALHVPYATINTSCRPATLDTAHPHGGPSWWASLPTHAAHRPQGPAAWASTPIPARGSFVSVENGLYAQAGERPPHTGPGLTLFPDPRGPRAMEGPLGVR

T2: TIGIT on human CMV pp65-specific CD8+ T cells (human, UniProt Q495A1 22-244)
T2 sequence (looked up): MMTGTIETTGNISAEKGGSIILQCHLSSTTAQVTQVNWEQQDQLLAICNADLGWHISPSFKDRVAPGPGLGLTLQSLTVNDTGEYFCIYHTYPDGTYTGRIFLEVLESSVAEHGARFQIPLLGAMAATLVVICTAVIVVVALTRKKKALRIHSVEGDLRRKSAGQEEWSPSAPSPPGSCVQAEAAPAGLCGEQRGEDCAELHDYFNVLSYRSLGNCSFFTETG

T3: Human PVRIG-HIS (prepared in-house) (human, UniProt Q6DKI7 41-171, limits assumed)
T3 construct: In-house protein; also called PVRIG-His (Compugen, lot 20170623); biotinylated PVRIG-His; not shown: His tag
T3 sequence (looked up): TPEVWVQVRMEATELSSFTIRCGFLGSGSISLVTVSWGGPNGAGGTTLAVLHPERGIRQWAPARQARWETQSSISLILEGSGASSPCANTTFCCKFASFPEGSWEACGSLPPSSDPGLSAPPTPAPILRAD

T4: Human TIGIT-HIS monomer (Sino Biological) (human, UniProt Q495A1 22-141)
T4 construct: Bought protein; also called TIGIT-His (Sino Biological cat #10917-H08H); biotinylated TIGIT-His; not shown: His tag
T4 sequence (looked up): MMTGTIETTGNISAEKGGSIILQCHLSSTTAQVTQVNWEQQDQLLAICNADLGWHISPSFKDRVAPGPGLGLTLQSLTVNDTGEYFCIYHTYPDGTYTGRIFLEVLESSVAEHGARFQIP

B1: CHA.7.518.1.H4(S241P)/CPA.9.086 bispecific antibody (bispecific antibody, human IgG4 S228P, kappa, lambda)
heavy 1: QVQLVQSGAEVKKPGASVKVSCKASGYTFTDYNINWVRQAPGQGLEWMGYIYPYIGGSGYAQKFQGRVTMTRDTSTSTVYMELSSLRSEDTAVYYCAREDKTARNAMDYWGQGTLVTVSSASTKGPSVFPLAPCSRSTSESTAALGCLVKDYFPEPVTVSWNSGALTSGVHTFPAVLQSSGLYSLSSVVTVPSSSLGTKTYTCNVDHKPSNTKVDKRVESKYGPPCPPCPAPEFLGGPSVFLFPPKPKDTLMISRTPEVTCVVVDVSQEDPEVQFNWYVDGVEVHNAKTKPREEQFNSTYRVVSVLTVLHQDWLNGKEYKCKVSNKGLPSSIEKTISKAKGQPREPQVYTLPPCQDELTKNQVSLWCLVKGFYPSDIAVEWESNGQPENNYKTTPPVLDSDGSFFLYSRLTVDKSRWQEGNVFSCSVMHEALHNHYTQKSLSLSPGK
light 1: DIQMTQSPSSLSASVGDRVTITCRVSENIYSNLAWYQQKPGKAPKLLIYEATNLAEGVPSRFSGSGSGTDFTLTISSLQPEDFATYYCQHFWGTPYTFGQGTKLEIKRTVAAPSVFIFPPSDEQLKSGTASVVCLLNNFYPREAKVQWKVDNALQSGNSQESVTEQDSKDSTYSLSSTLTLSKADYEKHKVYACEVTHQGLSSPVTKSFNRGEC
heavy 2: EVQLVETGGGLIQPGRSLRLSCAASGFTFSSYAMHWVRQAPGKGLEWVAVISYAGEVKYYADSVKGRFTISRDNSKNTLYLQMNSLRAEDTAVYYCARDPLPLHYYGMDVWGQGTTVTVSSASGQPKAAPSVTLFPPSSEELQANKATLVCLISDFYPGAVTVAWKADSSPVKAGVETTTPSKQSNNKYAASSYLSLTPEQWKSHRSYSCQVTHEGSTVEKTVAPTECSESKYGPPCPPCPAPEFLGGPSVFLFPPKPKDTLMISRTPEVTCVVVDVSQEDPEVQFNWYVDGVEVHNAKTKPREEQFNSTYRVVSVLTVLHQDWLNGKEYKCKVSNKGLPSSIEKTISKAKGQPREPQVCTLPPSQDELTKNQVSLSCAVKGFYPSDIAVEWESNGQPENNYKTTPPVLDSDGSFFLVSRLTVDKSRWQEGNVFSCSVMHEALHNHYTQKSLSLSPGK
light 2: QSALTQPRSASGNPGQRVTISCSGSSSNMGRRPVNWYQQIPGTAPKLLIYSQNQRPSGVPDRFSGSQSGTSASLTISGLQSEDEAEYFCAVWDDIGRVLQLGGGTQLAVLSSASTKGPSVFPLAPSSKSTSGGTAALGCLVKDYFPEPVTVSWNSGALTSGVHTFPAVLQSSGLYSLSSVVTVPSSSLGTQTYICNVNHKPSNTKVDKKVEPKSC
notes: also called CHA.7.518.1.H4(S241P)/CPA.9.086 BsAb; TIGIT-PVRIG Bispecific antibody

Assays:
[1] = target: TIGIT on human CMV pp65-specific CD8+ T cells (human) (UniProt Q495A1); assay: flow cytometry on CMV pp65-specific CD8+ T cells, day 11, against an isotype control
[2] = target: T1, PVRIG on human CMV pp65-specific CD8+ T …; assay: cell-based or functional assay
[3] = target: T2, TIGIT on human CMV pp65-specific CD8+ T …; assay: cell-based or functional assay
[4] = target: T3, Human PVRIG-HIS (prepared in-house); assay: SPR (ProteOn XPR 36, 22 C); BsAb captured on anti-human Fc, PVRIG-HIS as analyte, 1:1 fit
Experimental: (§1) All experiments were performed using a ProteOn XPR 36 instrument at 22° C. while samples were kept at 4° C. during the assay. First, high density capture surfaces were prepared with a goat anti-human Fc polyclonal antibody (Thermo Fisher) immobilized over all vertical capture lanes and horizontal interspots on a GLC chip (Bio Rad) using standard amine coupling. […] Human TIGIT-HIS monomer was obtained from Sino Biological, while human PVRIG-HIS was prepared in-house. […] For each “single-shot kinetics” cycle on the ProteOn instrument, a different antibody was captured over two unique vertical capture lanes for two minutes. After switching the buffer flow of the ProteOn to the horizontal direction, capture surfaces were stabilized for approximately 15-20 minutes. […] Three replicates of each concentration series of antigen were injected over two independent surfaces of the captured bispecific antibody along with several cycles of buffer injections for double-referencing. […] The sensorgrams of TIGIT and PVRIG injected over the captured bispecific antibody were processed using a ProteOn version of Scrubber and were fit to a 1:1 kinetic binding model, including a term for mass transport.

[5] = target: T4, Human TIGIT-HIS monomer (Sino …); assay: SPR (ProteOn XPR 36, 22 C); BsAb captured on anti-human Fc, TIGIT-HIS monomer as analyte; kd/ka with kd held constant; rough estimate
Experimental: as §1

[6] = target: T4, Human TIGIT-HIS monomer (Sino …); assay: SPR (ProteOn XPR 36, 22 C); BsAb captured on anti-human Fc, TIGIT-HIS monomer as analyte, 1:1 fit with kd held constant; rough estimate
Experimental: as §1

[7] = target: T4, Human TIGIT-HIS monomer (Sino …); assay: SPR (ProteOn XPR 36, 22 C); BsAb captured on anti-human Fc, TIGIT-HIS monomer as analyte; value fixed, not fitted, because too little dissociation was seen in 15 min
Experimental: as §1

Molecule | MFIr (MFI of target antibody divided by MFI of control antibody) [1] | IFN-γ production EC50, donor 4 (both receptors blocked) [2] | IFN-γ production EC50, donor 72 (both receptors blocked) [2] | IFN-γ production EC50, donor 4 (both receptors blocked) [3] | IFN-γ production EC50, donor 72 (both receptors blocked) [3] | Kd [4] | koff [4] | kon [4] | Kd [5] | kon [6] | koff [7]
anti-TIGIT (clone: MBSA43)-allophycocyanin (APC; e-Bioscience) (antibody) | 4 fold |  |  |  |  |  |  |  |  |  | 
B1 |  | 0.36 nM | 0.53 nM | 0.36 nM | 0.53 nM | 0.187 nM | 0.00024 s⁻¹ | 1.3e+06 M⁻¹ s⁻¹ | ≤ 2.6 pM | 3.9e+06 M⁻¹ s⁻¹ | ≤ 1e-05 s⁻¹
